Earlier results on one sequence are cited in publication PMC9871243.

In data set [1] the test system is Influenza A virus virion (cited work), hemagglutinin (Influenza A virus). Conditions: modifications in the cited assays not stated, PBS, pH and binding temperature not stated.
The test system of data set [2] is Influenza A virus hemagglutinin (cited work) (Influenza A virus). Particulars: modifications in the cited assays not stated, PBS, pH and binding temperature not stated.

One may read the Kd as a measure of binding affinity in units of concentration. As for “TTGGGTTATTTTGGGAGGGCGGGGGTT [RHA0385 (as in cited works)]”, the Kd was 0.0011 nM in data set [1] and 0.6 nM in data set [2].
